B1: RCP-1: recombinant polypeptide SEQ ID NO: 14; human vitronectin positions 1-55, 269-459, methionine on N-terminal (protein)
chain: MDQESCKGRCTEGFNVDKKCQCDELCSYYQSCCTDYTAECKPQVTRGDVFTMPEDEPSQEECEGSSLSAVFEHFAMMQRDSWEDIFELLFWGRTSAGTRQPQFISRDWHGVPGQVDAAMAGRIYISGMAPRPSLAKKQRFRHRNRKGYRSQRGHSRGRNQNSRRPSRATWLSLFSSEESNLGANNYDDYRMDWLVPATCEPIQSVFFFSGDKYYRVNLRTRRVDTVDPPYPRSIAQYWLGCPAPGHL
modifications: Synthetic peptide RCP-1
B2: RCP-11: recombinant polypeptide SEQ ID NO: 24; positions 1-459, corresponds to the sequence of natural human vitronectin, GPLG on N-terminal (protein)
chain: GPLGDQESCKGRCTEGFNVDKKCQCDELCSYYQSCCTDYTAECKPQVTRGDVFTMPEDEYTVYDDGEEKNNATVHEQVGGPSLTSDLQAQSKGNPEQTPVLKPEEEAPAPEVGASKPEGIDSRPETLHPGRPQPPAEEELCSGKPFDAFTDLKNGSLFAFRGQYCYELDEKAVRPGYPKLIRDVWGIEGPIDAAFTRINCQGKTYLFKGSQYWRFEDGVLDPDYPRNISDGFDGIPDNVDAALALPAHSYSGRERVYFFKGKQYWEYQFQHQPSQEECEGSSLSAVFEHFAMMQRDSWEDIFELLFWGRTSAGTRQPQFISRDWHGVPGQVDAAMAGRIYISGMAPRPSLAKKQRFRHRNRKGYRSQRGHSRGRNQNSRRPSRATWLSLFSSEESNLGANNYDDYRMDWLVPATCEPIQSVFFFSGDKYYRVNLRTRRVDTVDPPYPRSIAQYWLGCPAPGHL
modifications: GPLG N-terminal extension; Synthetic peptide RCP-11

How the values were obtained:
[1] = Aggregation after dialysis (removal of urea); format: physicochemical; settings: after stepwise dialysis against PBS, 1.5 M NaCl, 0.5 M L-arginine, 1 mM EDTA, pH 7.4
Experimental: For RCP-1 to RCP-10 and RCP-17, each of the purified polypeptide solutions was dialyzed using SLIDE-A-LIZER (trade name, 3.5 K MWCO.). Basically, by using a dialysis buffer (PBS, 1.5 M NaCl, 0.5 M L-arginine, 1 mM EDTA, pH 7.4) as an outer dialysate, urea was removed by stepwise dialysis. The concentration of the end-product of dialysis was calculated from the absorbence at 280 nm by using NANODROP (trade name, Thermo Fisher Scientific Inc.).
Furthermore, the indices of hydrophobicity determined for each of the amino acids were summed up, the obtained value was divided by the number of the amino acids, and the outcome was determined as the GRAVY value (see Kyte J., Doolittle R. F. (1982), J. Mol. Biol, 157: 105-132). The GRAVY value is an index of the hydrophilicity and hydrophobicity of a polypeptide calculated from the degree of hydrophobicity of the amino acids contained in each polypeptide. The greater the GRAVY value, the more the polypeptide is hydrophobic, and the smaller the GRAVY value, the more the polypeptide is hydrophilic. The results are shown in Table 4. • Whether or not aggregation was occurred was evaluated based on the scale of G, A, and B as shown below. The results are summarized in Table 4. • G: The formation of an aggregate was not observed. • A: The formation of particles having a particle size of about 100 nm was observed. • B: The formation of an aggregation of particles having a particle size of equal to or greater than 1 mm was visually observed.

iPS cells [2] = assay: Growth evaluation, growth curves over 8 days; format: cell-based, human; settings: FIG. 2
Experimental: The iPS cells collected in the same manner as in <Cell adhesiveness evaluation 1> were seeded into a 96-well plate, onto which RCP-1, RCP-11, and natural human vitronectin were adsorbed, at a ratio of 250 cells/well and cultured for 8 days in a 5% CO2 incubator at 37° C. The number of adhesive cells after different days of culture was measured in the same manner as in <Cell adhesiveness evaluation 1>, thereby obtaining growth curves. […] In FIG. 2, a black rhombus indicates a case using RCP-1, and a black square indicates a case using RCP-11.
From the increase and decrease in the obtained number of cells, the doubling time was calculated. As a result, it was confirmed that it takes 46.4±2.1 hours for the number of cells to be doubled in a case where RCP-1 is used, and 67.7±2.1 hours in a case where RCP-11 is used.

iPS cells [3] = assay: Cell adhesiveness evaluation 3 (RCP-1 at 125 to 1,000 pmol/cm^2); format: cell-based, human; settings: amount added equal to or greater than 125 pmol/cm^2
Experimental: The cell adhesiveness was evaluated in the same manner as in <Cell adhesiveness evaluation 1>, except that RCP-1 was used after the concentration thereof was adjusted to 125 pmol/cm^2 to 1,000 pmol/cm^2 by using PBS. In Table 9, the cell adhesion rate is expressed as relative value calculated by regarding a cell adhesion rate with respect to the culture vessel, onto which natural vitronectin is adsorbed at a concentration of 130 pmol/cm^2, as being 100. N=3.

iPS cells [4] = assay: Evaluation of maintenance of undifferentiated state (colony form, NANOG staining); format: cell-based, human; settings: FIGS. 4A to 4E; after culture for 1 month
Experimental: iPS cells collected in the same manner as in <Cell adhesiveness evaluation 1> were suspended in TeSR2. The iPS cells were seeded into 6-well plate (Tissue culture-treated, Falcon), onto which each of the samples 1, 2, 5, 6, and 7 used in <Cell adhesiveness evaluation 1> was adsorbed in the same manner as in <Cell adhesiveness evaluation 1>, and cultured in a CO2 incubator at 37° C. Except for the day after the seeding, the medium was replaced every day. In the same method as described above, the cells were subcultured every six days. FIGS. 3A to 3E show forms of the iPS cells cultured on each of the samples.
After being cultured for 1 month under the conditions described above, the cells were immobilized using 4% paraformaldehyde and treated with 1% Triton-X/PBS so as to enhance the membrane permeability. After the cells were subjected to a blocking treatment using an IMAGE IT SIGNAL ENHANCER (trade name, Invitrogen), an anti-human NANOG antibody (AF 1997, R&D Systems, Inc.), an ALEXA FLUOR 555 binding rabbit anti-goat IgG antibody (Invitrogen), and DAPI (Dojindo Molecular Technologies, Inc.) were added thereto for labeling, and the cells were imaged using a fluorescence microscope. FIGS. 4A to 4E show the fluorescence microscopic images.
FIGS. 3A and 4A show the iPS cells cultured on RCP-1; FIGS. 3B and 4B show the iPS cells cultured on RCP-11; FIGS. 3C and 4C show the iPS cells cultured on natural human vitronectin; FIGS. 3D and 4D show the iPS cells cultured on rLaminin-5; and FIGS. 3E and 4E show the iPS cells cultured on rLaminin-511. The scale bar in the images indicates […]. In FIGS. 3A to 3E, the images on the left side are full images of the colony, and the images on the right side are magnified images. In FIGS. 4A to 4E, the images on the left side are images of the cells stained with DAPI, and the images on the right side are images of the cells stained with an anti-NANOG antibody. The scale bar in FIGS. 3A to 4E indicates 200 μm.

Row | Molecule | Aggregation [1] | cell growth properties (in words) (iPS cells [2]) | adhesiveness of iPS cells (in words) (iPS cells [3]) | NANOG expression / maintenance of undifferentiated state (iPS cells [4]) | number of cells on Day 8 of culture, as fraction of the case where RCP-1 was used (iPS cells [2])
1 | B1 | A (The formation of particles having a particle size of about 100 nm was observed.) | higher cell growth properties compared to RCP-11 | equivalent to the cell adhesion rate of the natural vitronection | strongly expressed NANOG in the entirety of the colony | –
2 | B2 | – | – | – | strongly expressed NANOG in the entirety of the colony | about ⅓
